Test results: article PMC3079584, “A Cytoplasmic Complex Mediates Specific mRNA Recognition and Localization in Yeast”
Positions count from the first letter of the chain named.

How the values were obtained:
Puf6p = Puf6p (Saccharomyces cerevisiae, UniProt Q04373 2-656); test: EMSA; EMSA: 20 mM HEPES pH 7.8, 200 mM NaCl, 2 mM MgCl2, 2 mM DTT, 4% glycerol, 30 or 100 ug/ml yeast tRNA, 5 nM RNA, 20 C; filter binding: 20 mM HEPES pH 7.4-7.5 (7.9 with She3p), 150 mM NaCl, 2 mM MgCl2, 2 mM DTT, 30 ug/ml yeast tRNA, 0.5 nM RNA; pull-down: HNMD buffer, 4 C; conditions: protein: recombinant; tags: GST tag (cleaved for EMSA; retained in GST pull-downs); label: 32P; stem-loop
Chain of Puf6p (Q04373 2-656): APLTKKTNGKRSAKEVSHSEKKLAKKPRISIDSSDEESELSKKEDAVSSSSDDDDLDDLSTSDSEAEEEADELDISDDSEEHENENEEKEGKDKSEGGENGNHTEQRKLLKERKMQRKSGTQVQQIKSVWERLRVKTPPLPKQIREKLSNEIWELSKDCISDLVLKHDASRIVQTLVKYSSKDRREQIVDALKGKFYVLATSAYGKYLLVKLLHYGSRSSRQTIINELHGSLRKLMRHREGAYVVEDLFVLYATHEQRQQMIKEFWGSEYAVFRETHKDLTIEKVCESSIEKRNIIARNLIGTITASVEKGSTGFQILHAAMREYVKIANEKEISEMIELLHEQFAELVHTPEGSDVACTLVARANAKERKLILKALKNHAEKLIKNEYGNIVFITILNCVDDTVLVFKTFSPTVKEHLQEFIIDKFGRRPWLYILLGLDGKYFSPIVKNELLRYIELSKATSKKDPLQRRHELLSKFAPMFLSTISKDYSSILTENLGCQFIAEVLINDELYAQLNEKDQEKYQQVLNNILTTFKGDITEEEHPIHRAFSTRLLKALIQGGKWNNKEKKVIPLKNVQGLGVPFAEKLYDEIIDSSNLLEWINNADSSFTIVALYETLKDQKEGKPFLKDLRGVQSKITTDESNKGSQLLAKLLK

She3p (S348E) = molecular target: T1, She3p (S348E) (Saccharomyces cerevisiae, UniProt P38272 1-425, S348E); test: EMSA; +++; EMSA: 20 mM HEPES pH 7.8, 200 mM NaCl, 2 mM MgCl2, 2 mM DTT, 4% glycerol, 30 or 100 ug/ml yeast tRNA, 5 nM RNA, 20 C; filter binding: 20 mM HEPES pH 7.4-7.5 (7.9 with She3p), 150 mM NaCl, 2 mM MgCl2, 2 mM DTT, 30 ug/ml yeast tRNA, 0.5 nM RNA; pull-down: HNMD buffer, 4 C; conditions: protein: recombinant; tags: C-terminal His6; label: 32P; stem-loop
T1 sequence: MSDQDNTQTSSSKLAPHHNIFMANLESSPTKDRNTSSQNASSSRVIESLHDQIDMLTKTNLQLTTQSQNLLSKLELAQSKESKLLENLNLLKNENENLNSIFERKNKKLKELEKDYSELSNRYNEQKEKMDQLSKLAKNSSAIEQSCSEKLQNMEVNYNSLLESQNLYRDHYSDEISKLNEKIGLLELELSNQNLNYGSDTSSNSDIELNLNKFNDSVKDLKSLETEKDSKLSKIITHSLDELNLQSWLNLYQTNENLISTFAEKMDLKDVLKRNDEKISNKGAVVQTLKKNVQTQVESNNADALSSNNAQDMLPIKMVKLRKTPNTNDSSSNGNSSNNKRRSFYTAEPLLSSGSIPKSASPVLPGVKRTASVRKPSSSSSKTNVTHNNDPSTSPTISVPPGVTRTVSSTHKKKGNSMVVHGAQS

She3p (L364A V367A) = molecular target: T2, She3p (L364A V367A) (Saccharomyces cerevisiae, UniProt P38272 1-425, L364A;V367A); test: as above; conditions: protein: recombinant; tags: C-terminal His6; label: 32P; stem-loop
T2 sequence: T1 sequence with E348S, L364A, V367A

She2p (ΔhE);She3p = She2p (ΔhE);She3p (Saccharomyces cerevisiae;Saccharomyces …, UniProt P36068;P38272 1-246;1-425, del174-183|); test: EMSA; no mobility shift; EMSA: 20 mM HEPES pH 7.8, 200 mM NaCl, 2 mM MgCl2, 2 mM DTT, 4% glycerol, 30 or 100 ug/ml yeast tRNA, 5 nM RNA, 20 C; filter binding: 20 mM HEPES pH 7.4-7.5 (7.9 with She3p), 150 mM NaCl, 2 mM MgCl2, 2 mM DTT, 30 ug/ml yeast tRNA, 0.5 nM RNA; pull-down: HNMD buffer, 4 C; conditions: protein: recombinant;recombinant; tags: GST tag (PreScission-cleaved);C-terminal His6; chain copies: 4;2; label: 32P; stem-loop
Chain of She2p (ΔhE);She3p (P36068 other isoform, or with tags, fused parts or gaps del174-183| | mutant): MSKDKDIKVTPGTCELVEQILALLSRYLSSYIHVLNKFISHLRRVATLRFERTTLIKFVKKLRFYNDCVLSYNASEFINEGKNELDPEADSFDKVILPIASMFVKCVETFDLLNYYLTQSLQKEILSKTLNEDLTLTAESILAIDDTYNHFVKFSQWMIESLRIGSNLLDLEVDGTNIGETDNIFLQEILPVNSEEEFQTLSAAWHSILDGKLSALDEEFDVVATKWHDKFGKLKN

She2p = She2p (Saccharomyces cerevisiae, UniProt P36068 1-246); test: filter binding; +++ reference; EMSA: 20 mM HEPES pH 7.8, 200 mM NaCl, 2 mM MgCl2, 2 mM DTT, 4% glycerol, 30 or 100 ug/ml yeast tRNA, 5 nM RNA, 20 C; filter binding: 20 mM HEPES pH 7.4-7.5 (7.9 with She3p), 150 mM NaCl, 2 mM MgCl2, 2 mM DTT, 30 ug/ml yeast tRNA, 0.5 nM RNA; pull-down: HNMD buffer, 4 C; conditions: protein: recombinant; tags: GST tag (PreScission-cleaved); chain copies: 4; label: 32P; stem-loop
Chain of She2p (P36068 whole entry): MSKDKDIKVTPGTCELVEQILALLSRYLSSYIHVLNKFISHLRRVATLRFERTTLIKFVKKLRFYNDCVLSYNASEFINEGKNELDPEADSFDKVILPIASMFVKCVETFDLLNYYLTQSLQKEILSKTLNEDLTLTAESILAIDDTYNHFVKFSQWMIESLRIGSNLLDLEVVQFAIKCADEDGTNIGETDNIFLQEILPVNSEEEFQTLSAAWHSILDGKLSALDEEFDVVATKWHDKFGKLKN

She2p (ΔC);She3p = She2p (ΔC);She3p (Saccharomyces cerevisiae;Saccharomyces …, UniProt P36068;P38272 1-240;1-425, |); test: EMSA; She3p 25 nM; at least 25 nM She2p(ΔC) required; EMSA: 20 mM HEPES pH 7.8, 200 mM NaCl, 2 mM MgCl2, 2 mM DTT, 4% glycerol, 30 or 100 ug/ml yeast tRNA, 5 nM RNA, 20 C; filter binding: 20 mM HEPES pH 7.4-7.5 (7.9 with She3p), 150 mM NaCl, 2 mM MgCl2, 2 mM DTT, 30 ug/ml yeast tRNA, 0.5 nM RNA; pull-down: HNMD buffer, 4 C; conditions: protein: recombinant;recombinant; tags: GST tag (PreScission-cleaved);C-terminal His6; label: 32P; stem-loop
Chain of She2p (ΔC);She3p (P36068 1-240, stated change not applied, one chain of several): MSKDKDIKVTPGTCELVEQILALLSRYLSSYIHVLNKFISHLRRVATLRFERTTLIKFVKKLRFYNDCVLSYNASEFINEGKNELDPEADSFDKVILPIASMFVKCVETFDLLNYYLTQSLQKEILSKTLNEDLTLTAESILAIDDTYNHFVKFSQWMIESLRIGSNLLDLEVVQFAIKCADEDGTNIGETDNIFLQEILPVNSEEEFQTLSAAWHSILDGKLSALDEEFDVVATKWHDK

B1: ASH1 E3-118 (structured_RNA)
RNA: GAGACAGUAGAGAAUUGAUACAUGGAUAACUGAAUCUCUUUCAACUAAUAAGAGACAUUAUCACGAAACAAUUGUACAUUUCUCUCCUUGUCUGUGCUAAAUAAACUACAAAUAAAAA
binding result (Puf6p): binds | binding result (She3p (S348E)): binds | binding result (She3p (L364A V367A)): binds | binding result (She2p (ΔhE);She3p): no binding | binding result (She2p): binds | binding signal (She2p (ΔC);She3p): ~5 fold reduced
